In the supplement of paper PMC9112550, “Optimization of the antimicrobial peptide Bac7 by deep mutational scanning” (BMC Biology, 2022):

Test system: Escherichia coli TOP10
Experiment: shrunken log2 fold change of peptide-encoding DNA abundance (4.5 h post-induction vs induction); higher = less antimicrobial activity (less host growth inhibition)
Conditions: time post-induction: 4.5 h; library: site-saturation at positions 5, 18, 19, 20
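Note: peptides expressed intracellularly from a pBAD plasmid library in pooled LB shake-flask culture, induced with 0.3% L-arabinose, DNA abundance read by NGS, three biological replicates, DESeq2 with apeglm shrinkage.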

Row | Sequence | shrunken log2 fold change
1 | RRIRLRPPRLPRPRPRPAQWPRP | -0.0397
2 | RRIRKRPPRLPRPRPRPAQKPRP | -0.0358
3 | RRIRLRPPRLPRPRPRPTQHPRP | 0.218
4 | RRIRIRPPRLPRPRPRPLLCPRP | -0.462
5 | RRIRGRPPRLPRPRPRPHVVPRP | 0.1
6 | RRIRHRPPRLPRPRPRPFSEPRP | -0.591
7 | RRIRLRPPRLPRPRPRPYHPPRP | -0.00992
8 | RRIRGRPPRLPRPRPRPKRWPRP | 0.796
9 | RRIRGRPPRLPRPRPRPPWWPRP | 0.953
10 | RRIRNRPPRLPRPRPRPGSMPRP | -0.225
11 | RRIRIRPPRLPRPRPRPQFLPRP | -0.186
12 | RRIRDRPPRLPRPRPRPKSKPRP | -0.105
13 | RRIRKRPPRLPRPRPRPRLCPRP | 0.308
14 | RRIRQRPPRLPRPRPRPSHYPRP | -0.224
15 | RRIRARPPRLPRPRPRPASPPRP | 0.499
16 | RRIRFRPPRLPRPRPRPASNPRP | -0.479
17 | RRIRPRPPRLPRPRPRPNNMPRP | -0.412
18 | RRIRKRPPRLPRPRPRPFIFPRP | 0.085
19 | RRIRERPPRLPRPRPRPLQTPRP | 0.22
20 | RRIRMRPPRLPRPRPRPYQHPRP | 0.0551
21 | RRIRYRPPRLPRPRPRPTVHPRP | -1.3
22 | RRIRCRPPRLPRPRPRPFPLPRP | -0.0156
23 | RRIRNRPPRLPRPRPRPQANPRP | 0.202
24 | RRIRSRPPRLPRPRPRPRLGPRP | 0.468
25 | RRIRGRPPRLPRPRPRPPSPPRP | 1.01

Row | Sequence | shrunken log2 fold change
26 | RRIRKRPPRLPRPRPRPAYAPRP | -0.085
27 | RRIRRRPPRLPRPRPRPEMQPRP | 0.114
28 | RRIRVRPPRLPRPRPRPKKPPRP | -0.0463
29 | RRIRSRPPRLPRPRPRPKSSPRP | -0.176
30 | RRIRWRPPRLPRPRPRPQPEPRP | 0.139
31 | RRIRKRPPRLPRPRPRPHILPRP | 0.0523
32 | RRIRRRPPRLPRPRPRPIAIPRP | 0.108
33 | RRIRQRPPRLPRPRPRPKFHPRP | -0.0648
34 | RRIRERPPRLPRPRPRPPTDPRP | -0.0968
35 | RRIRDRPPRLPRPRPRPSKAPRP | -0.393
36 | RRIRGRPPRLPRPRPRPNHFPRP | -0.0611
37 | RRIRMRPPRLPRPRPRPDAFPRP | 1.47
38 | RRIRMRPPRLPRPRPRPDWEPRP | 0.382
39 | RRIRLRPPRLPRPRPRPFKFPRP | -0.202
40 | RRIRTRPPRLPRPRPRPGAYPRP | -0.143
41 | RRIRVRPPRLPRPRPRPLPAPRP | 0.449
42 | RRIRDRPPRLPRPRPRPPRGPRP | 1.31
43 | RRIRHRPPRLPRPRPRPHIRPRP | -0.0193
44 | RRIRQRPPRLPRPRPRPHYRPRP | -0.0839
45 | RRIRWRPPRLPRPRPRPAGCPRP | 0.28
46 | RRIRYRPPRLPRPRPRPALGPRP | 0.0458
47 | RRIRDRPPRLPRPRPRPLREPRP | 0.714
48 | RRIRSRPPRLPRPRPRPQQDPRP | -0.164
49 | RRIRWRPPRLPRPRPRPLQFPRP | 0.0403
50 | RRIRKRPPRLPRPRPRPKLTPRP | 0.104

Row | Sequence | shrunken log2 fold change
51 | RRIRRRPPRLPRPRPRPYQNPRP | -0.74
52 | RRIRLRPPRLPRPRPRPWYDPRP | -0.309
53 | RRIRNRPPRLPRPRPRPQYPPRP | -0.571
54 | RRIRKRPPRLPRPRPRPRSVPRP | 0.402
55 | RRIRHRPPRLPRPRPRPTCNPRP | -0.411
56 | RRIRQRPPRLPRPRPRPSTPPRP | -0.311
57 | RRIRTRPPRLPRPRPRPMCAPRP | -0.0676
58 | RRIRDRPPRLPRPRPRPVGDPRP | 0.47
59 | RRIRVRPPRLPRPRPRPACYPRP | -0.0764
60 | RRIRFRPPRLPRPRPRPFLGPRP | 0.0749
61 | RRIRRRPPRLPRPRPRPRNEPRP | 0.18
62 | RRIRRRPPRLPRPRPRPVMGPRP | 0.0569
63 | RRIRARPPRLPRPRPRPQSEPRP | 0.152
64 | RRIRSRPPRLPRPRPRPPDSPRP | 0.322
65 | RRIRLRPPRLPRPRPRPRCRPRP | 0.434
66 | RRIRYRPPRLPRPRPRPQEMPRP | -0.0143
67 | RRIRNRPPRLPRPRPRPVPNPRP | -0.0122
68 | RRIRGRPPRLPRPRPRPDDAPRP | 0.314
69 | RRIRVRPPRLPRPRPRPDIYPRP | -0.131
70 | RRIRTRPPRLPRPRPRPMINPRP | -0.239
71 | RRIRDRPPRLPRPRPRPRCIPRP | -0.0108
72 | RRIRRRPPRLPRPRPRPYLKPRP | -0.936
73 | RRIRARPPRLPRPRPRPMILPRP | 0.0109
74 | RRIRCRPPRLPRPRPRPQKSPRP | -0.554
75 | RRIRGRPPRLPRPRPRPDQSPRP | 0.777
